Laboratory results: PMC9482650, “Quantitative fragmentomics allow affinity mapping of interactomes” (Nature Communications, 2022)

Tests used:
Assay in all cases: holdup assay
Design in all cases: key: below the threshold = too weak to quantify, mostly under pKd 3.1 to 4
DLG4_2, P78352 = target: DLG4_2, P78352
DLG4_3, P78352 = target: DLG4_3, P78352
DLG5_1, Q8TDM6 = target: DLG5_1, Q8TDM6
FRMPD2_1, Q68DX3 = target: FRMPD2_1, Q68DX3
FRMPD2_2, Q68DX3 = target: FRMPD2_2, Q68DX3
GRID2IP_1, A4D2P6 = target: GRID2IP_1, A4D2P6
GRID2IP_2, A4D2P6 = target: GRID2IP_2, A4D2P6
GRIP1_5, Q9Y3R0 = target: T1, GRIP1_5, Q9Y3R0
T1 sequence (Q9Y3R0 568-668, limits assumed, looked up): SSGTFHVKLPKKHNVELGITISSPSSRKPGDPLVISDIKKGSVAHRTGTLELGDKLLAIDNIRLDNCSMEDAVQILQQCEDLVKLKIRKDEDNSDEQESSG

IL16_1, Q14005 = target: IL16_1, Q14005
LDB3, O75112 = target: LDB3, O75112
LNX2_2, Q8N448 = target: T2, LNX2_2, Q8N448
T2 sequence (Q8N448 334-432, limits assumed, looked up): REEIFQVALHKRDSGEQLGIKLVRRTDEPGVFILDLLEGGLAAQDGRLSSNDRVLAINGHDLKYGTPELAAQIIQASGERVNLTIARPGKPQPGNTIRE

MAGI2_2, Q86UL8 = target: MAGI2_2, Q86UL8
MAGI2_3, Q86UL8 = target: MAGI2_3, Q86UL8
MAGI2_5, Q86UL8 = target: MAGI2_5, Q86UL8
MAGI3_2, Q5TCQ9 = target: MAGI3_2, Q5TCQ9
MPDZ_12, O75970 = target: T3, MPDZ_12, O75970
T3 sequence (O75970 1857-1958, limits assumed, looked up): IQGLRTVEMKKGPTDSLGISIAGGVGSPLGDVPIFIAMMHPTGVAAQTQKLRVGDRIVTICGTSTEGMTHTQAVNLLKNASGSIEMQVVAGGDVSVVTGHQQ

NHERF3_4, Q5T2W1 = target: T4, NHERF3_4, Q5T2W1
T4 sequence (Q5T2W1 373-468, limits assumed, looked up): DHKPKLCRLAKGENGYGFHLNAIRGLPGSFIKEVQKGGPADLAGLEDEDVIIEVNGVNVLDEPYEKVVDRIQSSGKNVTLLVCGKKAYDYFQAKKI

NOS1, P29475 = target: NOS1, P29475
PARD3_3, Q8TEW0 = target: PARD3_3, Q8TEW0
PDZRN3_1, Q9UPQ7 = target: T5, PDZRN3_1, Q9UPQ7
T5 sequence (Q9UPQ7 244-349, limits assumed, looked up): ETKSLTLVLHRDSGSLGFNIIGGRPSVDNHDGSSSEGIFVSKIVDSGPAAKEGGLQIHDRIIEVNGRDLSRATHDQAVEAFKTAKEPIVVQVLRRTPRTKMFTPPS

SCRIB_2, Q14160 = target: SCRIB_2, Q14160
SNTG1, Q9NSN8 = target: T6, SNTG1, Q9NSN8
T6 sequence (Q9NSN8 52-150, limits assumed, looked up): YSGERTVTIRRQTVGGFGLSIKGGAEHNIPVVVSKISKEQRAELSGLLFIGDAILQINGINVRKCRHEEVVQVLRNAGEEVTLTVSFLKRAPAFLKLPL

SNTG2, Q9NY99 = target: T7, SNTG2, Q9NY99
T7 sequence (Q9NY99 68-166, limits assumed, looked up): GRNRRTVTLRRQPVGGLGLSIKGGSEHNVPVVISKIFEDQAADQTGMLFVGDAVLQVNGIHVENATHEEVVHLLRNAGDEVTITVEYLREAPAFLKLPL

SNX27, Q96L92 = target: SNX27, Q96L92
SYNJ2BP, P57105 = target: T8, SYNJ2BP, P57105
T8 sequence (P57105 8-110, limits assumed, looked up): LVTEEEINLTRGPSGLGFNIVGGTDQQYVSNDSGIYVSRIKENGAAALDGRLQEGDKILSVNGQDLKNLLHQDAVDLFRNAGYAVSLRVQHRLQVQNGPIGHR

TIAM2, Q8IVF5 = target: T9, TIAM2, Q8IVF5
T9 sequence (Q8IVF5 885-986, limits assumed, looked up): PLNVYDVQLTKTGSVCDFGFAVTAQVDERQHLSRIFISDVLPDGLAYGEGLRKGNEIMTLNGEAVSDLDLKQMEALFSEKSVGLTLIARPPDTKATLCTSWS

TJP1_2, Q07157 = target: TJP1_2, Q07157
TX1BP3, O14907 = target: T10, TX1BP3, O14907
T10 sequence (O14907 10-122, limits assumed, looked up): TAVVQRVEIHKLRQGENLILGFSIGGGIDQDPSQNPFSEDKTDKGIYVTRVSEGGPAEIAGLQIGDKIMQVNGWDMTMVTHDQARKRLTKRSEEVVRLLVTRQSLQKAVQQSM

[1] = plain residues with an end cap or a label only (N-terminal biotin on a linker: ado-ado)
[2] = plain residues with an end cap or a label only (N-terminal biotin on a linker: ttds)
[3] = plain residues with an end cap or a label only (N-terminal biotin on a linker: ahx)

Chain of DLG4_3, P78352 (P78352 306-403): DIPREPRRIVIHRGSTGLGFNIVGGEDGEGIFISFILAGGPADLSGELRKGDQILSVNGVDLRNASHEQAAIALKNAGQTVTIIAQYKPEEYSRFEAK
Chain of IL16_1, Q14005 (Q14005 210-306): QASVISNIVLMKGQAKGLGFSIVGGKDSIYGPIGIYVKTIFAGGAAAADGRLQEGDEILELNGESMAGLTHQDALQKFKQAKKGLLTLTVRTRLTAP
Chain of DLG4_2, P78352 (P78352 155-259): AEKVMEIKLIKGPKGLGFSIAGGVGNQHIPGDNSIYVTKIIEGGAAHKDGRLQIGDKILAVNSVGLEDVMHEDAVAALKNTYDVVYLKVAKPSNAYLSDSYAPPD
Chain of LDB3, O75112 (O75112 1-94): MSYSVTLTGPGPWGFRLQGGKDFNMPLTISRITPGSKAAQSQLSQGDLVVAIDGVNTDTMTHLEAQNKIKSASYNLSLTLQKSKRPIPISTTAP
Chain of GRID2IP_1, A4D2P6 (A4D2P6 1-87): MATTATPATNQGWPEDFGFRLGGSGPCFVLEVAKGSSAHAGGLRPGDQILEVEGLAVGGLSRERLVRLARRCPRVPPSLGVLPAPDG
Chain of FRMPD2_2, Q68DX3 (Q68DX3 944-1038): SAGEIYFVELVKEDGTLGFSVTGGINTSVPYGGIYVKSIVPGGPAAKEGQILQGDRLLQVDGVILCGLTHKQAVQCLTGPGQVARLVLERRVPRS
Chain of MAGI3_2, Q5TCQ9 (Q5TCQ9 398-503): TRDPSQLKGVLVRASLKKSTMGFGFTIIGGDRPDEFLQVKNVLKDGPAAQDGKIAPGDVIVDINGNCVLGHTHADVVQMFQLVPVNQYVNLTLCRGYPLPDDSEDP
Chain of MAGI2_5, Q86UL8 (Q86UL8 915-1017): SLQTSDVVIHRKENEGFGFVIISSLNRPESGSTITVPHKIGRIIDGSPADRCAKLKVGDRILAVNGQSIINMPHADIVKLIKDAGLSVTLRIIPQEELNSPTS
Chain of PARD3_3, Q8TEW0 (Q8TEW0 582-685): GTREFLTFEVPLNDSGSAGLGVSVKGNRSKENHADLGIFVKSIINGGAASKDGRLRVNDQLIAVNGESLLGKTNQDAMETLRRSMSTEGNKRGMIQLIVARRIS
Chain of NOS1, P29475 (P29475 9-101): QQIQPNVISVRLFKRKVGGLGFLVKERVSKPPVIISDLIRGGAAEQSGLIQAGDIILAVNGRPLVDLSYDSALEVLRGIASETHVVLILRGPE
Chain of GRID2IP_2, A4D2P6 (A4D2P6 272-370): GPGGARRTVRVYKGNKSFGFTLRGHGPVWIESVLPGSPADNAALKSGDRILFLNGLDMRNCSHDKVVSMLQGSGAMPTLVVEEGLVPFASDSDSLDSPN
Chain of TJP1_2, Q07157 (Q07157 181-274): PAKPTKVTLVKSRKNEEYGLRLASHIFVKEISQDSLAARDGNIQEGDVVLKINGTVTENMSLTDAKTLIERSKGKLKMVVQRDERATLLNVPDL
Chain of FRMPD2_1, Q68DX3 (Q68DX3 770-861): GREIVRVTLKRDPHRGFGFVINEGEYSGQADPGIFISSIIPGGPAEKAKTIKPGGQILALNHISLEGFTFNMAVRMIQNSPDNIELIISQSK
Chain of DLG5_1, Q8TDM6 (Q8TDM6 617-713): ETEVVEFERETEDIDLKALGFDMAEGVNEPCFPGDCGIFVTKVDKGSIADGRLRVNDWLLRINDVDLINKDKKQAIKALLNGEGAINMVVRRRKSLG
Chain of MAGI2_2, Q86UL8 (Q86UL8 410-522): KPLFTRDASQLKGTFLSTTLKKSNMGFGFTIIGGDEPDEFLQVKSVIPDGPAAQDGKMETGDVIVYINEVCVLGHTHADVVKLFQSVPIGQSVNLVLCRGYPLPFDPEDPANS
Chain of MAGI2_3, Q86UL8 (Q86UL8 600-682): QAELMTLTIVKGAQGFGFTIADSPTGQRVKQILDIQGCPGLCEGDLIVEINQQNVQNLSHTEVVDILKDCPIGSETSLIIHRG
Chain of SCRIB_2, Q14160 (Q14160 857-960): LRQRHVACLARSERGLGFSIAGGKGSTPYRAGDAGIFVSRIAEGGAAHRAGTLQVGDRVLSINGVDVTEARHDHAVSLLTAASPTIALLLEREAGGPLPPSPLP

B1: PRKCA, P17252 (peptide)
chain: FVHPILQSAV
- pKd (DLG4_2, P78352; [1]): 4.53
- pKd (DLG4_3, P78352; [1]): 3.88
- pKd (DLG5_1, Q8TDM6; [1]): below the threshold
- pKd (FRMPD2_1, Q68DX3; [1]): below the threshold
- pKd (FRMPD2_2, Q68DX3; [1]): 3.73
- pKd (GRID2IP_1, A4D2P6; [1]): below the threshold
- pKd (GRID2IP_2, A4D2P6; [1]): 4.36
- pKd (GRIP1_5, Q9Y3R0; [1]): below the threshold
- pKd (IL16_1, Q14005; [1]): 4.33
- pKd (LDB3, O75112; [1]): below the threshold
- pKd (LNX2_2, Q8N448; [1]): below the threshold
- pKd (MAGI2_2, Q86UL8; [1]): 3.9
- pKd (MAGI2_3, Q86UL8; [1]): 3.83
- pKd (MAGI2_5, Q86UL8; [1]): 4.73
- pKd (MAGI3_2, Q5TCQ9; [1]): 4.32
- pKd (MPDZ_12, O75970; [1]): below the threshold
- pKd (NHERF3_4, Q5T2W1; [1]): below the threshold
- pKd (NOS1, P29475; [1]): 3.57
- pKd (PARD3_3, Q8TEW0; [1]): below the threshold
- pKd (PDZRN3_1, Q9UPQ7; [1]): 4.21
- pKd (SCRIB_2, Q14160; [1]): 4.29
- pKd (SNTG1, Q9NSN8; [1]): 4.35
- pKd (SNTG2, Q9NY99; [1]): 3.64
- pKd (SNX27, Q96L92; [1]): 4.68
- pKd (SYNJ2BP, P57105; [1]): 5.31
- pKd (TIAM2, Q8IVF5; [1]): below the threshold
- pKd (TJP1_2, Q07157; [1]): below the threshold
- pKd (TX1BP3, O14907; [1]): 5.09

B2: HPV51-E6, P26554 (peptide)
chain: RTRQRNETQV
- pKd (DLG4_2, P78352; [2]): 4.99
- pKd (DLG4_3, P78352; [2]): 4.75
- pKd (DLG5_1, Q8TDM6; [2]): below the threshold
- pKd (FRMPD2_1, Q68DX3; [2]): below the threshold
- pKd (FRMPD2_2, Q68DX3; [2]): 3.41
- pKd (GRID2IP_1, A4D2P6; [2]): below the threshold
- pKd (GRID2IP_2, A4D2P6; [2]): below the threshold
- pKd (GRIP1_5, Q9Y3R0; [2]): below the threshold
- pKd (IL16_1, Q14005; [2]): below the threshold
- pKd (LDB3, O75112; [2]): below the threshold
- pKd (LNX2_2, Q8N448; [2]): 3.61
- pKd (MAGI2_2, Q86UL8; [2]): 6.66
- pKd (MAGI2_3, Q86UL8; [2]): 4.02
- pKd (MAGI2_5, Q86UL8; [2]): 4.12
- pKd (MAGI3_2, Q5TCQ9; [2]): 5.83
- pKd (MPDZ_12, O75970; [2]): below the threshold
- pKd (NHERF3_4, Q5T2W1; [2]): below the threshold
- pKd (NOS1, P29475; [2]): 3.91
- pKd (PARD3_3, Q8TEW0; [2]): below the threshold
- pKd (PDZRN3_1, Q9UPQ7; [2]): 4.06
- pKd (SCRIB_2, Q14160; [2]): 4.39
- pKd (SNTG1, Q9NSN8; [2]): 3.98
- pKd (SNTG2, Q9NY99; [2]): 4.22
- pKd (SNX27, Q96L92; [2]): 4.85
- pKd (SYNJ2BP, P57105; [2]): 5.02
- pKd (TIAM2, Q8IVF5; [2]): below the threshold
- pKd (TJP1_2, Q07157; [2]): below the threshold
- pKd (TX1BP3, O14907; [2]): 4.13

B3: TMEM215, Q68D42 (peptide)
chain: QGRWDHETIV
- pKd (DLG4_2, P78352; [3]): 4.66
- pKd (DLG4_3, P78352; [3]): 3.64
- pKd (DLG5_1, Q8TDM6; [3]): below the threshold
- pKd (FRMPD2_1, Q68DX3; [3]): below the threshold
- pKd (FRMPD2_2, Q68DX3; [3]): 4.4
- pKd (GRID2IP_1, A4D2P6; [3]): below the threshold
- pKd (GRID2IP_2, A4D2P6; [3]): below the threshold
- pKd (GRIP1_5, Q9Y3R0; [3]): 3.55
- pKd (IL16_1, Q14005; [3]): 4.4
- pKd (LDB3, O75112; [3]): 3.47
- pKd (LNX2_2, Q8N448; [3]): 5.07
- pKd (MAGI2_2, Q86UL8; [3]): 4.08
- pKd (MAGI2_3, Q86UL8; [3]): 3.77
- pKd (MAGI2_5, Q86UL8; [3]): 4.44
- pKd (MAGI3_2, Q5TCQ9; [3]): 4.66
- pKd (MPDZ_12, O75970; [3]): below the threshold
- pKd (NHERF3_4, Q5T2W1; [3]): 3.52
- pKd (NOS1, P29475; [3]): 4.04
- pKd (PARD3_3, Q8TEW0; [3]): 4.47
- pKd (PDZRN3_1, Q9UPQ7; [3]): 3.73
- pKd (SCRIB_2, Q14160; [3]): 4.08
- pKd (SNTG1, Q9NSN8; [3]): 4.7
- pKd (SNTG2, Q9NY99; [3]): 4.58
- pKd (SNX27, Q96L92; [3]): 5.38
- pKd (SYNJ2BP, P57105; [3]): 4.14
- pKd (TIAM2, Q8IVF5; [3]): below the threshold
- pKd (TJP1_2, Q07157; [3]): 3.5
- pKd (TX1BP3, O14907; [3]): 4.31
